pKd: −log10 of the molar value.
Legend:
[1] = target: GLP-1 receptor on CHO-K1/GLP1/Gal5 cells; assay: cell-based or functional assay
[2] = target: GLP-1 receptor (covalently immobilized to the Biacore biosensor surface); assay: Biacore SPR, GLP-1 receptor covalently immobilized, peptide injected

EC50 of intracellular calcium mobilization (Calcium-4, FlexStation, RFU) [1] | pKd [2] | Substance
0.336 µM | 5.80 | 5 kDa-PEG-Cys(37)-GLP-1 (from UniProt P01275 27-56) (peptide)
 | 6.00 | GLP-1 (7-36) (from UniProt P01275 27-56) (peptide)
